{"source": "patent US20070275898", "biological_target": "β subunit of DNA polymerase III of Escherichia coli (UniProt P0A988)", "sequence (P0A988 whole entry)": "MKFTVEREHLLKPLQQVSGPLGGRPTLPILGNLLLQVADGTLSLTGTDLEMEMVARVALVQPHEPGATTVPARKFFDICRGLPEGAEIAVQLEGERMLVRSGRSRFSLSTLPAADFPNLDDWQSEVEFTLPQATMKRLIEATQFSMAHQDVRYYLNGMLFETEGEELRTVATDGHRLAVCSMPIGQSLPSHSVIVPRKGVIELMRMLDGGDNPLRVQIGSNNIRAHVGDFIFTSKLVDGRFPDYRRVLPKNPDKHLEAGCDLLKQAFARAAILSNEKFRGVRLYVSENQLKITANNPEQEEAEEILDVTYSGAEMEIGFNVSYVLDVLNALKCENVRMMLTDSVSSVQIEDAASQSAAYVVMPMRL", "data": [{"substance": "Pol IVD5 mutant of Pol IV lacking the 5 C-terminal amino-acids", "values": [{"measurement": "growth rate (OD 600 nm) of E. coli on IPTG-induced expression", "value": "a clear growth inhibition was observed for the culture expressing the wild type Pol IV protein compared to the one expressing the mutant protein"}]}]}
